# Results reported in the supplement of paper PMC12764529.
# ± gives the half width of the 95% confidence interval.
# What was measured:
# [1] = folding stability dG unfold from trypsin proteolysis; higher = more stable
# Procedure, shortened: (§1)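 Mini-proteins designed to be under 80 residues and free of cysteine were carried in a PA-tagged cDNA display construct and digested with trypsin and with chymotrypsin. Each protease was applied at 11 threefold-diluted concentrations, alongside a no-protease condition, before sequencing. K50 came from Bayesian fitting of the sequencing counts, and unfolding free energy was obtained by comparing it with a sequence-predicted unfolded-state K50 and a shared folded-state K50, for each protease separately or for both together. Designs were retained only if their AlphaFold2 dimer inter-PAE exceeded 15.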
# [2] = folding stability dG unfold (combined trypsin and chymotrypsin); higher = more stable
# Procedure, shortened: as §1
# [3] = folding stability dG unfold from chymotrypsin proteolysis; higher = more stable
# Procedure, shortened: as §1
Sequence,folding stability dG unfold [1] [kcal/mol],folding stability dG unfold [2] [kcal/mol],folding stability dG unfold [3] [kcal/mol]
SAGLEDAQKEKRFVIKIEIRHPNGEKVKMTIAFKPGDPEDIRDELRKMGMPPDDLNERNPNLKIDEIEPSAG [r5_430_TrROS],0.646 ± 0.084,1.29 ± 0.11,1.59 ± 0.079
SAGLKVESQTYDPATGTATVTPPLEGVPPDYTITVTDTATGKKTTLPPDGDVTLSNPTGPVTVTLTRPASAG [r14_134_JUSTAS],0.152 ± 0.038,0.277 ± 0.074,0.354 ± 0.093
SAGLKVRIRTKDGREIEIEVSEEEAERLVKELEDAGFTVERVEVEELEPEEEKEELEEEERELKEELEESAG [r5_645_TrROS_Hall],3.28 ± 0.27,2.72 ± 0.32,2.91 ± 0.069
SAGLRIEPTPDYIKITMPGPNMANEIIKKIQEHFGDIEIDDIKPEPYPNGNNRVTIWIPLKNLPPELLKSAG [r5_857_TrROS],0.895 ± 0.028,1.06 ± 0.07,1.18 ± 0.085
SAGMAEEAREAARLFASELAPRFGVEAEIPEVRVEFDPETGEVHVHLEVLFRLPEPRTVRRDFVLVLPLSAG [r5_381_TrMRF],1.3 ± 0.086,1.67 ± 0.1,1.92 ± 0.13
SAGMAKVKLKVEVYFPKTGKPVTMEIEVEGLTLEEIIEEVKKAIEAIGLKIDPDAPVKIVITDIEVYPGSAG [r5_230_TrMRF],3.75 ± 0.11,3.77 ± 0.077,3.77 ± 0.039
SAGMARIIPNPPVIEVVRKDGSKLVIPPEEIEELRAALEAKGGPYTPEEIAEAIRKLFPDYEVSIVPASAGG [r19_46_TrMRF],-0.284 ± 0.38,-0.109 ± 0.22,-0.0899 ± 0.17
SAGMDFPESYTPIASNGKTLVFKSPTEVYIVLYSPEGGSEVRSFTPGDESVLNPFLEELKKSDYVNLNISAG [r14_12_JUSTAS],0.695 ± 0.028,0.995 ± 0.093,1.1 ± 0.087
SAGMDKPLKVLEIGGAILPNTGKVVLKAKVEDPDSNTPLDLTLTLPVVDPVTGKPYIFTASYTYESPLSAGG [r19_129_TrMRF],0.338 ± 0.13,0.681 ± 0.12,0.844 ± 0.17
SAGMEAIRKKAEELAKKGKIFKITLTGPDGIPETKILSPEEFKKFLEEFPDPEAIASVEVEAYEPGKPISAG [r5_957_JUSTAS],2.35 ± 0.1,3.24 ± 0.1,3.78 ± 0.046
SAGMEIEITGPNLEELAEKVAKELKEKNWSPPVTITLKEPGGKTVLKVTVEFNPPNPNEIKVTKEKVESAGG [r19_85_JUSTAS],0.571 ± 0.14,0.683 ± 0.18,0.902 ± 0.062
SAGMEKAINLAKEYAKKLGLPLESINVTEIGNSVIIEMKIPEKGETITVNIPIHPDGTISLNIKFEKKKSAG [r5_888_JUSTAS],1.2 ± 0.037,2.09 ± 0.087,2.623 ± 0.019
SAGMEKKTLTVTHPDGSEATVEVYKNPETGKYVTLVHYPETGKYEVFDDNGNLIATFGNGSAADAFKAISAG [r5_757_TrMRF],0.375 ± 0.054,1.44 ± 0.13,1.8 ± 0.1
SAGMETIEVPLPVEEIKEALDAGLSPEEIARLLAEETGEEVEIEVGGRKITITRNEDGELIVRIEVKPDSAG [r5_343_TrROS_Hall],2.51 ± 0.085,2.36 ± 0.2,2.22 ± 0.091
SAGMETVTVEVDGATITFVKNEDGTVTAIVTYPNGEVEIYNADGELIRRERLPNGLVVFEFTKEELEKLSAG [r5_457_TrROS_Hall],1.19 ± 0.057,1.93 ± 0.14,2.09 ± 0.068
SAGMETVVTYDPSNGTVTTTTTVFAPDGTPLGSLSTTTPIGGGTITYTTITIDPETGTVTTTTTAYPGASAG [r5_34_JUSTAS],2.77 ± 0.093,4.25 ± 0.11,4.49 ± 0.086
SAGMEVEILGAEVDPETGVVKVVAVGRDPVTGVLVVDEITIKGDTVEIRREVYFPNTGKKAETTATIPLSAG [r5_150_TrMRF],1.66 ± 0.13,1.55 ± 0.12,1.43 ± 0.071
SAGMGIVEALRRELEAAGLDVRVSATVEPLPDLGYVLITVHVEVRNENGEWVPLGPLTILLPVEEAERLSAG [r5_413_TrMRF],2.9 ± 0.12,2.55 ± 0.13,2.43 ± 0.07
